The values that follow come from the supplement of paper PMC10567573.

The chains are these.
B1: KLHL12 (parent)
chain: LDYTADEDGVWYSVAPMNVRRGLA
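Further: lentivirally expressed fusions sorted by FACS into six bins by GFP to DsRed ratio, PSI derived from sequencing read proportions per bin multiplied by bin number.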

In the data set the parent is B1. The data set can be described thus: protein stability index of a GFP-peptide fusion (GPS, HEK-293T) (PSI 1-6); higher = more stable. Particulars: c terminus: a fixed tail appended.
For LDYTADEDGVWYSVADMNVRRGLA, the protein stability index was 3.07.

As to LDYTADEDGVWYSVARMNVRRGLA, the protein stability index was 2.25.

Consider LDYTADEDGVWYSVAIMNVRRGLA, for which the protein stability index turned out to be 1.79.

On to LDYTADEDGVWYSVAEMNVRRGLA, for which the protein stability index turned out to be 3.28.

With LDYTADEDGVWYSVATMNVRRGLA, the protein stability index is 2.62.

Consider LDYTADEDGVWYSVAYMNVRRGLA, for which the protein stability index was 2.56.

Consider LDYTADEDGVWYSVACMNVRRGLA, for which the protein stability index was 1.72.

With LDYTADEDGVWYSVALMNVRRGLA, the protein stability index was 2.41.

With LDYTADEDGVWYSVAWMNVRRGLA, the protein stability index worked out at 1.59.

With LDYTADEDGVWYSVANMNVRRGLA, the protein stability index was found to be 2.24.

As to LDYTADEDGVWYSVAPMNVRRWLA, the protein stability index stood at 1.48.

Turning to LDYTADEDGVWYSVAPMNVRRLLA, the protein stability index came to 2.

Turning to LDYTADEDGVWYSVAPMNVRRDLA, the protein stability index is 1.79.

Turning to LDYTADEDGVWYSVAPMNVRRKLA, the protein stability index amounted to 2.23.

Consider LDYTADEDGVWYSVAPMNVRRTLA, for which the protein stability index worked out at 2.31.

As for LDYTADEDGVWYSVAPMNVRRSLA, the protein stability index was 1.72.

Regarding LDYTADEDGVWYSVAPMNVRRILA, the protein stability index was found to be 2.16.

As for LDYTNDEDGVWYSVAPMNVRRGLA, the protein stability index is 2.19.

As to LDYTKDEDGVWYSVAPMNVRRGLA, the protein stability index turned out to be 2.35.

As to LDYTIDEDGVWYSVAPMNVRRGLA, the protein stability index turned out to be 2.99.

As for LDYTPDEDGVWYSVAPMNVRRGLA, the protein stability index is 2.23.

Take LDYTTDEDGVWYSVAPMNVRRGLA: the protein stability index was found to be 1.94.

For the variant LDHTADEDGVWYSVAPMNVRRGLA, the protein stability index worked out at 3.43.

Consider LDTTADEDGVWYSVAPMNVRRGLA, for which the protein stability index is 3.01.

Regarding LDVTADEDGVWYSVAPMNVRRGLA, the protein stability index was 1.78.

Take LDKTADEDGVWYSVAPMNVRRGLA: the protein stability index amounted to 3.58.

For LDMTADEDGVWYSVAPMNVRRGLA, the protein stability index worked out at 2.33.

Turning to LDFTADEDGVWYSVAPMNVRRGLA, the protein stability index was 2.29.

LDWTADEDGVWYSVAPMNVRRGLA: the protein stability index is 1.94.

Turning to LDQTADEDGVWYSVAPMNVRRGLA, the protein stability index is 3.69.

For LDPTADEDGVWYSVAPMNVRRGLA, the protein stability index turned out to be 3.6.

On to LDCTADEDGVWYSVAPMNVRRGLA, for which the protein stability index turned out to be 2.47.

In the case of LDYTADADGVWYSVAPMNVRRGLA, the protein stability index was determined as 1.28.

With LDYTADDDGVWYSVAPMNVRRGLA, the protein stability index turned out to be 1.46.

Consider LDYTADLDGVWYSVAPMNVRRGLA, for which the protein stability index came out at 2.79.

On to LDYTADCDGVWYSVAPMNVRRGLA, for which the protein stability index turned out to be 1.65.

In the case of LDYTADGDGVWYSVAPMNVRRGLA, the protein stability index came out at 1.7.

Consider LDYTADQDGVWYSVAPMNVRRGLA, for which the protein stability index came to 2.43.

As for LDYTADEDGVWYSVAPMNVRRGMA, the protein stability index amounted to 2.38.

Take LDYTADEDGVWYSVAPMNVRRGAA: the protein stability index was determined as 2.68.

As to LDYTADEDGVWYSVAPMNVRRGWA, the protein stability index was 1.37.

LDYTADEDGVWYSVAPMNVRRGTA: the protein stability index is 2.19.

With LDYTADEDGVWYSVAPMNVRRGIA, the protein stability index is 1.74.

In the case of LDYTADEDGVWYSVAPMNVRRGFA, the protein stability index came out at 1.83.

LDYTADEDGVWYSVAPMNVRRGCA: the protein stability index amounted to 1.93.

As to LDYTADEDGVWYSVAPMNVRRGEA, the protein stability index was found to be 2.41.

LDYAADEDGVWYSVAPMNVRRGLA: the protein stability index is 2.24.

LDYLADEDGVWYSVAPMNVRRGLA: the protein stability index came out at 4.91.

Turning to LDYFADEDGVWYSVAPMNVRRGLA, the protein stability index stood at 1.7.

Regarding LDYCADEDGVWYSVAPMNVRRGLA, the protein stability index came to 1.98.

As for LDYVADEDGVWYSVAPMNVRRGLA, the protein stability index worked out at 1.98.

For LDYKADEDGVWYSVAPMNVRRGLA, the protein stability index came out at 2.57.

For LDYEADEDGVWYSVAPMNVRRGLA, the protein stability index came to 2.69.

Take LDYTADEDGVSYSVAPMNVRRGLA: the protein stability index stood at 3.62.

With LDYTADEDGVVYSVAPMNVRRGLA, the protein stability index was 3.62.

Consider LDYTADEDGVTYSVAPMNVRRGLA, for which the protein stability index was determined as 2.99.

As for LDYTADEDGVGYSVAPMNVRRGLA, the protein stability index was 3.69.

In the case of LDYTADEDGVQYSVAPMNVRRGLA, the protein stability index amounted to 3.38.

LDYTADEDGVEYSVAPMNVRRGLA: the protein stability index is 4.55.

In the case of LDYTADEDGVFYSVAPMNVRRGLA, the protein stability index was 2.85.

LDYTADEDGVIYSVAPMNVRRGLA: the protein stability index is 2.61.

As for LDYTADEDGVAYSVAPMNVRRGLA, the protein stability index was 3.86.

Regarding LDYTADEDGVWYSVAPMYVRRGLA, the protein stability index was found to be 2.24.

With LDYTADEDGVWYSVAPMPVRRGLA, the protein stability index was 2.57.

For the variant LDYTADEDGVWYSVAPMEVRRGLA, the protein stability index amounted to 1.83.

In the case of LDYTADEDGVWYSVAPMLVRRGLA, the protein stability index stood at 1.97.

Consider LDYTADEDGVWYSVAPMMVRRGLA, for which the protein stability index came out at 1.46.

Turning to LDYTADEDGVWYSVAPMVVRRGLA, the protein stability index is 2.35.

For LDYTADEDGVWYSVAPMQVRRGLA, the protein stability index was found to be 1.58.

With LDYTADEDGVWYSVAPMHVRRGLA, the protein stability index came out at 1.95.

In the case of LDYTAAEDGVWYSVAPMNVRRGLA, the protein stability index stood at 1.93.

LDYTAEEDGVWYSVAPMNVRRGLA: the protein stability index was found to be 2.16.

In the case of LDYTAHEDGVWYSVAPMNVRRGLA, the protein stability index was 1.85.

As to LDYTAMEDGVWYSVAPMNVRRGLA, the protein stability index is 2.18.

Take LDYTANEDGVWYSVAPMNVRRGLA: the protein stability index stood at 1.27.

Take LDYTALEDGVWYSVAPMNVRRGLA: the protein stability index was determined as 2.08.

As to LDYTACEDGVWYSVAPMNVRRGLA, the protein stability index is 2.61.

Consider LDYTAGEDGVWYSVAPMNVRRGLA, for which the protein stability index was found to be 2.36.

Consider LDYTAQEDGVWYSVAPMNVRRGLA, for which the protein stability index was determined as 1.7.

Turning to LDYTADEDGVWYSVAPINVRRGLA, the protein stability index was found to be 3.28.

On to LDYTADEDGVWYSVAPYNVRRGLA, for which the protein stability index amounted to 1.86.

In the case of LDYTADEDGVWYSVAPRNVRRGLA, the protein stability index came out at 3.34.

Consider LDYTADEDGVWYSVAPTNVRRGLA, for which the protein stability index came out at 2.48.

For LDYTADEDGVWYSVAPLNVRRGLA, the protein stability index was 1.74.

In the case of LDYTADEDGVWYSVAPDNVRRGLA, the protein stability index came out at 2.47.

For LDYTADEDGVWYSVAPPNVRRGLA, the protein stability index amounted to 2.58.

Regarding LDYTADEDGVWDSVAPMNVRRGLA, the protein stability index worked out at 3.74.

In the case of LDYTADEDGVWTSVAPMNVRRGLA, the protein stability index is 3.12.

Turning to LDYTADEDGVWWSVAPMNVRRGLA, the protein stability index came out at 2.3.

LDYTADEDGVWLSVAPMNVRRGLA: the protein stability index is 2.02.

Take LDYTADEDGVWNSVAPMNVRRGLA: the protein stability index was found to be 3.45.

Turning to LDYTADEDGVWASVAPMNVRRGLA, the protein stability index was determined as 3.55.

With LDYTADEDGVWGSVAPMNVRRGLA, the protein stability index turned out to be 2.84.

In the case of LDYTADEDGVWPSVAPMNVRRGLA, the protein stability index was found to be 3.52.
